Like-named read-outs stand apart in the source and are kept apart here.
Columns and labels:
Ec Hfq Q95W = Ec Hfq Q95W (Escherichia coli, UniProt P0A6X3 1-102, Q95W); assay: fluorescence polarization
Ec Hfq F11W [1] = target: T1, Ec Hfq F11W (Escherichia coli, UniProt P0A6X3 1-102, F11W); assay: fluorescence polarization
Ec Hfq F39W [2] = target: T2, Ec Hfq F39W (Escherichia coli, UniProt P0A6X3 1-102, F39W); assay: fluorescence polarization
Ec Hfq F42W [3] = target: T3, Ec Hfq F42W (Escherichia coli, UniProt P0A6X3 1-102, F42W); assay: fluorescence polarization
Ec Hfq G77W [4] = target: T4, Ec Hfq G77W (Escherichia coli, UniProt P0A6X3 1-102, G77W); assay: fluorescence polarization
Ec Hfq R17W [5] = target: T5, Ec Hfq R17W (Escherichia coli, UniProt P0A6X3 1-102, R17W); assay: fluorescence polarization
Ec Hfq Y83W [6] = target: T6, Ec Hfq Y83W (Escherichia coli, UniProt P0A6X3 1-102, Y83W); assay: fluorescence polarization
Ec Hfq K31W = Ec Hfq K31W (Escherichia coli, UniProt P0A6X3 1-102, K31W); assay: fluorescence polarization
Lm Hfq F43W = target: T7, Lm Hfq F43W (Listeria monocytogenes, UniProt Q92C58 1-77, F43W); assay: Trp fluorescence quenching
T7 sequence: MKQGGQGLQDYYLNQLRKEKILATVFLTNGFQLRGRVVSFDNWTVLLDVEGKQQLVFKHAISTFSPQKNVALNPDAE

Sa Hfq Q31W = Sa Hfq Q31W (Staphylococcus aureus, UniProt A0A0H3JV59 1-77, Q31W); assay: Trp fluorescence quenching
Sa Hfq F25W = Sa Hfq F25W (Staphylococcus aureus, UniProt A0A0H3JV59 1-77, F25W); assay: Trp fluorescence quenching
Ec Hfq Q33W = Ec Hfq Q33W (Escherichia coli, UniProt P0A6X3 1-102, Q33W); assay: Trp fluorescence quenching
Ec Hfq Y25W = Ec Hfq Y25W (Escherichia coli, UniProt P0A6X3 1-102, Y25W); assay: Trp fluorescence quenching
Ec Hfq F42W [7] = target: T3, Ec Hfq F42W; assay: Trp fluorescence quenching
Ec Hfq Y83W [8] = target: T6, Ec Hfq Y83W; assay: Trp fluorescence quenching
Ec Hfq F11W [9] = target: T1, Ec Hfq F11W; assay: Trp fluorescence quenching
Ec Hfq F39W [10] = target: T2, Ec Hfq F39W; assay: Trp fluorescence quenching
Ec Hfq Y83W [11] = target: T6, Ec Hfq Y83W; assay: Trp fluorescence quenching; remark: listed apart in the source
Ec Hfq R17W [12] = target: T5, Ec Hfq R17W; assay: Trp fluorescence quenching
Ec Hfq G77W [13] = target: T4, Ec Hfq G77W; assay: Trp fluorescence quenching
Hfq WT = Hfq WT (Escherichia coli, UniProt P0A6X3 1-102); assay: fluorescence polarization

B1: A15 (fluorescein) (ssRNA)
RNA: AAAAAAAAAAAAAAA
- Kd (Ec Hfq Q95W): 2.6 ± 1.1 nM
- Kd (Ec Hfq F11W [1]): 7.1 ± 0.6 nM
- Kd (Ec Hfq F39W [2]): 0.59 ± 0.35 nM
- Kd (Ec Hfq F42W [3]): 0.28 ± 0.09 nM
- Kd (Ec Hfq G77W [4]): 2.9 ± 1.7 nM
- Kd (Ec Hfq R17W [5]): 3.7 ± 1.5 nM
- Kd (Ec Hfq Y83W [6]): 7.4 ± 2.8 nM
- Kd (Ec Hfq K31W): 1.4 ± 0.5 nM

B2: (AU)3A (ssRNA)
RNA: AUAUAUA
- binding result (Lm Hfq F43W): binds
- binding result (Sa Hfq Q31W): binds
- binding result (Sa Hfq F25W): binds

B3: A15 (ssRNA)
RNA: AAAAAAAAAAAAAAA
- binding result (Ec Hfq Q33W): binds
- binding result (Sa Hfq Q31W): binds
- binding result (Sa Hfq F25W): binds
- binding result (Ec Hfq Y25W): binds

B4: (GGA)5 (ssRNA)
RNA: GGAGGAGGAGGAGGA
- binding result (Ec Hfq F42W [7]): binds
- binding result (Ec Hfq Y83W [8]): binds

B5: hfq mRNA site B 24-mer (ssRNA)
RNA: GCAUAUAAGGAAAAGAGAGAAUGG
- binding result (Ec Hfq F11W [9]): binds
- binding result (Ec Hfq F39W [10]): binds
- binding result (Ec Hfq Q33W): binds
- binding result (Ec Hfq F42W [7]): binds
- binding result (Ec Hfq Y83W [11]): binds
- binding result (Ec Hfq Y25W): binds

B6: hfq 5'-UTR (64 nt) (structured_RNA)
RNA: GGAUUUUUUCAGAAUCGAAAGGUUCAAAGUACAAAUAAGCAUAUAAGGAAAAGAGAGAAUGGGAUC
- binding result (Ec Hfq Q33W): binds
- binding result (Ec Hfq F42W [7]): binds
- binding result (Ec Hfq R17W [12]): binds

B7: (AC)3A (ssRNA)
RNA: ACACACA
- binding result (Sa Hfq Q31W): binds
- binding result (Sa Hfq F25W): binds

B8: U6 (ssRNA)
RNA: UUUUUU
- binding result (Ec Hfq F42W [7]): binds
- binding result (Lm Hfq F43W): binds

B9: (AAG)5 (ssRNA)
RNA: AAGAAGAAGAAGAAG
- binding result (Ec Hfq F11W [9]): binds
- binding result (Ec Hfq Q33W): binds

B10: (GU)3G (ssRNA)
RNA: GUGUGUG
- binding result (Lm Hfq F43W): binds

B11: hfq mRNA site A 24-mer (structured_RNA)
RNA: AUUUUUUCAGAAUCGAAAGGUUCA
- binding result (Ec Hfq F39W [10]): binds
- binding result (Ec Hfq Q33W): binds
- binding result (Ec Hfq G77W [13]): binds
- binding result (Ec Hfq Y83W [11]): binds

B12: U16 (fluorescein) (ssRNA)
RNA: UUUUUUUUUUUUUUUU
- Kd (Hfq WT): 6.6 nM
